Assay results as given in the supplement of paper PMC10724198.
± gives the standard deviation of the averaged measurements.

Test system: Saccharomyces cerevisiae
Assay: protein stability index of tFT-peptide fusion (C-terminal peptide) (PSI (0-1 scale)); higher = more stable (slower turnover)
Details: genetic background: wild type; temperature: 30 C
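Note: PSI is a weighted mean of sequencing reads over stability bins, variants kept only with over 10 reads, mCherry proximal and sfGFP distal, peptide attached via GGGS linker.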

Row | Sequence | protein stability index
1 | PPRGFDPSFQTV | 0.7 ± 0.18
2 | PPRHPPPSPLVA | 0.668 ± 0.011
3 | PPRHTPFSLPPF | 0.651 ± 0.074
4 | PPRLNKAPCLDP | 0.705 ± 0.036
5 | PPRPFTLLPPPP | 0.6424 ± 0.0062
6 | PPRPPAPHLSGI | 0.681 ± 0.039
7 | PPRPPPAPPPLP | 0.642 ± 0.0021
8 | PPRPPPFPPLLP | 0.679 ± 0.058
9 | PPRPPPHPPLPP | 0.678 ± 0.0057
10 | PPRPPPLPPSRP | 0.627 ± 0.032
11 | PPRPPPSPPSFP | 0.688 ± 0.014
12 | PPRPPRFFLLPP | 0.6586 ± 0.0061
13 | PPRPQPPGSSFS | 0.741 ± 0.012
14 | PPRPRPRPLSPP | 0.65 ± 0.039
15 | PPRPSLIPPLPS | 0.61 ± 0.016
16 | PPRPSTPPRHSL | 0.695 ± 0.058
17 | PPRQPACAFLPS | 0.653 ± 0.09
18 | PPRSPPPLSPTP | 0.583 ± 0.038
19 | PPRSPPPPPTLP | 0.6578 ± 0.001
20 | PPSAALPTSPTG | 0.6911 ± 0.0015
21 | PPSFCFFLLPFL | 0.6558 ± 0.0054
22 | PPSHSPRPLSFL | 0.653 ± 0.08
23 | PPSHYPFTPADP | 0.728 ± 0.046
24 | PPSIFELFPSPP | 0.7122 ± 0.0051
25 | PPSLHSRAFTLS | 0.557 ± 0.2
26 | PPSLPAPPPPPA | 0.6655 ± 0.0023

Row | Sequence | protein stability index
27 | PPSLSGECSPSF | 0.6781 ± 0.0039
28 | PPSLTPPFSPLL | 0.703 ± 0.027
29 | PPSLTSPRHPPT | 0.669 ± 0.022
30 | PPSNASFSSPPH | 0.824 ± 0.035
31 | PPSPAGPLPSPA | 0.686 ± 0.021
32 | PPSPHLPPPPAL | 0.715 ± 0.016
33 | PPSPPAPPAPPH | 0.692 ± 0.038
34 | PPSPPLPPLPPP | 0.653 ± 0.0084
35 | PPSPPLRPPSLC | 0.704 ± 0.024
36 | PPSPPPPPPLHS | 0.676 ± 0.042
37 | PPSPPPTPFPPS | 0.651 ± 0.1
38 | PPSPPPTTPSPP | 0.656 ± 0.035
39 | PPSPPSSHPLLP | 0.679 ± 0.0078
40 | PPSPSPPAPQAS | 0.632 ± 0.05
41 | PPSRPPPPPPSP | 0.702 ± 0.061
42 | PPSSLPRLQCSP | 0.674 ± 0.054
43 | PPSSPHAPTALP | 0.685 ± 0.032
44 | PPSSPTRPSSPL | 0.736 ± 0.051
45 | PPTANPMLPPPF | 0.651 ± 0.055
46 | PPTASPPPLSPL | 0.691 ± 0.083
47 | PPTFLLRSAPSL | 0.669 ± 0.043
48 | PPTFRLHCPPAT | 0.72 ± 0.02
49 | PPTLRRGSTFYH | 0.6788 ± 0.0016
50 | PPTNTPTPPSYV | 0.691 ± 0.025
51 | PPTPAAPGLPPA | 0.677 ± 0.035
52 | PPTPPAFPPLLA | 0.662 ± 0.03

Row | Sequence | protein stability index
53 | PPTPQRRRSPPP | 0.7326 ± 0.0066
54 | PPTPSLPRPPMQ | 0.676 ± 0.014
55 | PPTPSSPRPMAP | 0.818 ± 0.14
56 | PPTPVSRSPPPA | 0.665 ± 0.021
57 | PPTRPPPALIPP | 0.711 ± 0.022
58 | PPTRSLYLLPLI | 0.6983 ± 0.0035
59 | PPVLPVGLPPTP | 0.684 ± 0.035
60 | PPVLTLFMPSYS | 0.7051 ± 0.0043
61 | PPVPPLRPSCPS | 0.684 ± 0.01
62 | PPVSLGCPPGRP | 0.776 ± 0.099
63 | PPVSPFPVLQGR | 0.652 ± 0.048
64 | PPWPPQVALPPT | 0.762 ± 0.068
65 | PPYPLLLRLPPP | 0.618 ± 0.066
66 | PQCSLPLPFTLL | 0.61363 ± 0.00047
67 | PQHLPFPSPAPP | 0.711 ± 0.011
68 | PQILTSRVAIKL | 0.646 ± 0.068
69 | PQLFLENHEFCI | 0.925 ± 0.051
70 | PQLPSRVYPSLP | 0.695 ± 0.027
71 | PQRPRTLPPLTP | 0.7236 ± 0.0015
72 | PQTPANDDGDPN | 0.642 ± 0.041
73 | PQVNSNQIRAPD | 0.677 ± 0.021
74 | PQYLSGFDIHNG | 0.728 ± 0.052
75 | PRAPHHRIPEDL | 0.733 ± 0.097
76 | PRDRLIRNHVTR | 0.716 ± 0.086
77 | PRERADPSLPVK | 0.663 ± 0.035
78 | PRFKPSRSTPAD | 0.675 ± 0.031

Row | Sequence | protein stability index
79 | PRGLFLTRLRPC | 0.64 ± 0.058
80 | PRIPPLRPPPPA | 0.6649 ± 0.0047
81 | PRKVNAHKDTCH | 0.693 ± 0.022
82 | PRLARSASLDSP | 0.731 ± 0.08
83 | PRLLPPDPRHAP | 0.7002 ± 0.0032
84 | PRLPPTDHAGAL | 0.675 ± 0.04
85 | PRLRPFATPNCF | 0.636 ± 0.046
86 | PRPDPAPPAALP | 0.6017 ± 0.0057
87 | PRPGGQGHPNAG | 0.742 ± 0.027
88 | PRPKPSAIPILT | 0.597 ± 0.015
89 | PRPLLPPPPLLA | 0.629 ± 0.083
90 | PRPLPSPPHPRP | 0.71 ± 0.026
91 | PRPLPTGRFPPP | 0.669 ± 0.028
92 | PRPPLPSTPEAA | 0.612 ± 0.024
93 | PRPPLRATASVV | 0.699 ± 0.033
94 | PRPPPSRSFPPP | 0.784 ± 0.13
95 | PRPPTSPPSLHP | 0.7 ± 0.025
96 | PRQACPLPLPHV | 0.655 ± 0.029
97 | PRQGTRKYDKMN | 0.724 ± 0.059
98 | PRRAARLLPRPL | 0.693 ± 0.015
99 | PRRARPLALVFH | 0.6 ± 0.033
100 | PRRSSSPPLLSP | 0.784 ± 0.0088
101 | PRSAPPVPPIYP | 0.6502 ± 0.0053
